This note sets out measurements from patent US20260217779A1 (Chugai, published 2026).

T1: human CXCR3 (hCXCR3) on Ba/F3 transfectant cells (human, UniProt P49682 1-368)
T1 sequence: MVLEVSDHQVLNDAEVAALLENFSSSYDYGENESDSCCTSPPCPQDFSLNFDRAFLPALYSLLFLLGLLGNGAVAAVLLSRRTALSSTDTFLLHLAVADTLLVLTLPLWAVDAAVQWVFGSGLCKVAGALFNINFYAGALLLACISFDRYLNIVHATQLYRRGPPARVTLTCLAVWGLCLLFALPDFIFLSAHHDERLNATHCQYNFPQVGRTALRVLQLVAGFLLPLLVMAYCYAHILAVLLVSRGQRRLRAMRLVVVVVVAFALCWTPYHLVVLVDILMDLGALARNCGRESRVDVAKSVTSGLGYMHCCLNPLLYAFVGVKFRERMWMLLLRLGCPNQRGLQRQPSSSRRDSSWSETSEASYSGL

B1: hCXCL11.0054-G1T4k.one//VHn-G1T4h.one.H435R (Fc fusion)
chain 1: FSPMFKRGRCLCIGPGVKAVKVADIEKASIMYPSNNCDKIEVIITLKENKGQRCLNPKSKQARLIIKKVERKNFEPKSSDKTHTCPPCPAPELRRGPSVFLFPPKPKDTLMISRTPEVTCVVVDVSHEDPEVKFNWYVDGVEVHNAKTKPREEQYNSTYRVVSVLTVLHQDWLNGKEYKCKVSNKGLPSSIEKTISKAKGQPREPQVCTLPPSREEMTKNQVSLWCLVKGFYPSDIAVEWESNGQPENNYKTTPPVLDSDGSFFLYSKLTVDKSRWQEGNVFSCSVMHEALHNHYTQKSLSLSP
chain 2: EPKSSDKTHTCPPCPAPELRRGPSVFLFPPKPKDTLMISRTPEVTCVVVDVSHEDPEVKFNWYVDGVEVHNAKTKPREEQYNSTYRVVSVLTVLHQDWLNGKEYKCKVSNKGLPSSIEKTISKAKGQPREPQVYTLPPSRCEMTKNQVSLSCAVKGFYPSDIAVEWESNGQPENNYKTTPPVLDSDGSFFLVSKLTVDKSRWQEGNVFSCSVMHEALHNRYTQKSLSLSP
B2: hCXCL11.0056-G1T4k.one//VHn-G1T4h.one.H435R (Fc fusion)
chain 1: FVPMFKRGRCLCIGPGVKAVKVADIEKASIMYPSNNCDKIEVIITLKENKGQRCLNPKSKQARLIIKKVERKNFEPKSSDKTHTCPPCPAPELRRGPSVFLFPPKPKDTLMISRTPEVTCVVVDVSHEDPEVKFNWYVDGVEVHNAKTKPREEQYNSTYRVVSVLTVLHQDWLNGKEYKCKVSNKGLPSSIEKTISKAKGQPREPQVCTLPPSREEMTKNQVSLWCLVKGFYPSDIAVEWESNGQPENNYKTTPPVLDSDGSFFLYSKLTVDKSRWQEGNVFSCSVMHEALHNHYTQKSLSLSP
chain 2: EPKSSDKTHTCPPCPAPELRRGPSVFLFPPKPKDTLMISRTPEVTCVVVDVSHEDPEVKFNWYVDGVEVHNAKTKPREEQYNSTYRVVSVLTVLHQDWLNGKEYKCKVSNKGLPSSIEKTISKAKGQPREPQVYTLPPSRCEMTKNQVSLSCAVKGFYPSDIAVEWESNGQPENNYKTTPPVLDSDGSFFLVSKLTVDKSRWQEGNVFSCSVMHEALHNRYTQKSLSLSP
B3: hCXCL11.0057-G1T4k.one//VHn-G1T4h.one.H435R (Fc fusion)
chain 1: FWPMFKRGRCLCIGPGVKAVKVADIEKASIMYPSNNCDKIEVIITLKENKGQRCLNPKSKQARLIIKKVERKNFEPKSSDKTHTCPPCPAPELRRGPSVFLFPPKPKDTLMISRTPEVTCVVVDVSHEDPEVKFNWYVDGVEVHNAKTKPREEQYNSTYRVVSVLTVLHQDWLNGKEYKCKVSNKGLPSSIEKTISKAKGQPREPQVCTLPPSREEMTKNQVSLWCLVKGFYPSDIAVEWESNGQPENNYKTTPPVLDSDGSFFLYSKLTVDKSRWQEGNVFSCSVMHEALHNHYTQKSLSLSP
chain 2: EPKSSDKTHTCPPCPAPELRRGPSVFLFPPKPKDTLMISRTPEVTCVVVDVSHEDPEVKFNWYVDGVEVHNAKTKPREEQYNSTYRVVSVLTVLHQDWLNGKEYKCKVSNKGLPSSIEKTISKAKGQPREPQVYTLPPSRCEMTKNQVSLSCAVKGFYPSDIAVEWESNGQPENNYKTTPPVLDSDGSFFLVSKLTVDKSRWQEGNVFSCSVMHEALHNRYTQKSLSLSP
B4: hCXCL11.0055-G1T4k.one//VHn-G1T4h.one.H435R (Fc fusion)
chain 1: FTPMFKRGRCLCIGPGVKAVKVADIEKASIMYPSNNCDKIEVIITLKENKGQRCLNPKSKQARLIIKKVERKNFEPKSSDKTHTCPPCPAPELRRGPSVFLFPPKPKDTLMISRTPEVTCVVVDVSHEDPEVKFNWYVDGVEVHNAKTKPREEQYNSTYRVVSVLTVLHQDWLNGKEYKCKVSNKGLPSSIEKTISKAKGQPREPQVCTLPPSREEMTKNQVSLWCLVKGFYPSDIAVEWESNGQPENNYKTTPPVLDSDGSFFLYSKLTVDKSRWQEGNVFSCSVMHEALHNHYTQKSLSLSP
chain 2: EPKSSDKTHTCPPCPAPELRRGPSVFLFPPKPKDTLMISRTPEVTCVVVDVSHEDPEVKFNWYVDGVEVHNAKTKPREEQYNSTYRVVSVLTVLHQDWLNGKEYKCKVSNKGLPSSIEKTISKAKGQPREPQVYTLPPSRCEMTKNQVSLSCAVKGFYPSDIAVEWESNGQPENNYKTTPPVLDSDGSFFLVSKLTVDKSRWQEGNVFSCSVMHEALHNRYTQKSLSLSP
B5: hCXCL11.0058-G1T4k.one//VHn-G1T4h.one.H435R (Fc fusion)
chain 1: FYPMFKRGRCLCIGPGVKAVKVADIEKASIMYPSNNCDKIEVIITLKENKGQRCLNPKSKQARLIIKKVERKNFEPKSSDKTHTCPPCPAPELRRGPSVFLFPPKPKDTLMISRTPEVTCVVVDVSHEDPEVKFNWYVDGVEVHNAKTKPREEQYNSTYRVVSVLTVLHQDWLNGKEYKCKVSNKGLPSSIEKTISKAKGQPREPQVCTLPPSREEMTKNQVSLWCLVKGFYPSDIAVEWESNGQPENNYKTTPPVLDSDGSFFLYSKLTVDKSRWQEGNVFSCSVMHEALHNHYTQKSLSLSP
chain 2: EPKSSDKTHTCPPCPAPELRRGPSVFLFPPKPKDTLMISRTPEVTCVVVDVSHEDPEVKFNWYVDGVEVHNAKTKPREEQYNSTYRVVSVLTVLHQDWLNGKEYKCKVSNKGLPSSIEKTISKAKGQPREPQVYTLPPSRCEMTKNQVSLSCAVKGFYPSDIAVEWESNGQPENNYKTTPPVLDSDGSFFLVSKLTVDKSRWQEGNVFSCSVMHEALHNRYTQKSLSLSP

This assay concerns the target T1, human CXCR3 (hCXCR3) on Ba/F3 …. Description: cell-based or functional assay.
Regarding B1, the “Activity retention rate at 33 nM” value was found to be 42%, the “Activity retention rate at 100 nM” value came to 63%, the “Activity retention rate at 300 nM” value turned out to be 51% and the “Luminescence value at 33 nM” value amounted to 3.24e+06. The “Luminescence value at 100 nM” value is 1.05e+07 and the “Luminescence value at 300 nM” value was determined as 6.34e+06.
For the molecule B2, the “Activity retention rate at 33 nM” value was 8%, the “Activity retention rate at 100 nM” value came to 33%, the “Activity retention rate at 300 nM” value is 59% and the “Luminescence value at 33 nM” value turned out to be 643000. Moreover, the “Luminescence value at 100 nM” value turned out to be 5.57e+06 and the “Luminescence value at 300 nM” value turned out to be 7.33e+06.
Consider B3, for which the “Activity retention rate at 33 nM” value was 7%, the “Activity retention rate at 100 nM” value stood at 37%, the “Activity retention rate at 300 nM” value worked out at 86% and the “Luminescence value at 33 nM” value was found to be 501000. The “Luminescence value at 100 nM” value is 6.21e+06 and the “Luminescence value at 300 nM” value was 1.07e+07.
Consider B4, for which the “Activity retention rate at 33 nM” value is 39%, the “Activity retention rate at 100 nM” value was 58%, the “Activity retention rate at 300 nM” value stood at 42% and the “Luminescence value at 33 nM” value stood at 2.98e+06. Moreover, the “Luminescence value at 100 nM” value was determined as 9.65e+06 and the “Luminescence value at 300 nM” value came to 5.27e+06.
For B5, the “Activity retention rate at 33 nM” value came out at 15%, the “Activity retention rate at 100 nM” value is 42%, the “Activity retention rate at 300 nM” value amounted to 84% and the “Luminescence value at 33 nM” value amounted to 1.12e+06. Moreover, the “Luminescence value at 100 nM” value came out at 7.07e+06 and the “Luminescence value at 300 nM” value amounted to 1.04e+07.
